{"source": "paper doi:10.1101/2020.05.22.111047", "biological_target": "Carbonic anhydrase 1 (CA1) (human, UniProt P00915 2-261)", "sequence (P00915 2-261)": "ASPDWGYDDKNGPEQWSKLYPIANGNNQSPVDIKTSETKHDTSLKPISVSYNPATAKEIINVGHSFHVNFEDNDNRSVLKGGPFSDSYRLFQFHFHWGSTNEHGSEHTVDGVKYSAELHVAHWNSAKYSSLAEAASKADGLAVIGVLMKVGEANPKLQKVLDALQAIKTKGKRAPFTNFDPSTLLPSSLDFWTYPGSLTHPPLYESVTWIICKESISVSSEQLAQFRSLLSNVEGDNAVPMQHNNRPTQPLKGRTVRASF", "experiment": "G-FET", "data": [{"binder": "CAGGCGCAGUAUCACUUUGUGAUCAUUAGUGGGUUCCGUG (ssRNA, 5' amine, coupled to graphene via PBASE linker)", "note": "[CA1 RNA aptamer]", "values": [{"measurement": "Kd", "value": 2.27, "unit": "ng/mL"}]}]}
